From publication PMC10770758, “Protocatechuate hydroxylase is a novel group A flavoprotein monooxygenase with a unique substrate recognition mechanism” (The Journal of Biological Chemistry, 2023)

B1: PkPobA (Pigmentiphaga kullae) (protein)
chain: MSERTQVGIVGAGPAGLLLSHLLHREGIESIVFDNRSREHVQQRLRAGVLEQGTVDLLAEVGLGERMRRLGMPQTSLDFRYAQASHRIDFAQEIGRTVMVYPQHEVVHDLIEARLAAGGDLRFDTPVTAIRDLEGPSPTILAGPEGRPVRCDFIAGCDGFHGICRDAIPASVMKAYDRVYPFGWLGILAEVPPAAPDVTWGCHETGFAMLSFRSPTRSRLYLQCEPDDDPDNWSDDRIWSALHERLDVPGMPPLIEGPIVQKGVTAMRSFQVEPLRHGALFLAGDAAHIVPPTGAKGLNSAVADIRVLGRALAAYYRQGSTRLLDSYSETCLRRMWLVHRFSAGLCTMVHSFPGQSDFARRLQRADLDYMTGSEPGRRAFSENFTGLPIEA
B2: PaPobA (Pseudomonas aeruginosa PAO1) (protein)
chain: MKTQVAIIGAGPSGLLLGQLLHKAGIDNVILERQTPDYVLGRIRAGVLEQGMVDLLREAGVDRRMARDGLVHEGVEIAFAGQRRRIDLKRLSGGKTVTVYGQTEVTRDLMEAREACGATTVYQAAEVRLHDLQGERPYVTFERDGERLRLDCDYIAGCDGFHGISRQSIPAERLKVFERVYPFGWLGLLADTPPVSHELIYANHPRGFALCSQRSATRSRYYVQVPLSEKVEDWSDERFWTELKARLPSEVAEKLVTGPSLEKSIAPLRSFVVEPMQHGRLFLAGDAAHIVPPTGAKGLNLAASDVSTLYRLLLKAYREGRGELLERYSAICLRRIWKAERFSWWMTSVLHRFPDTDAFSQRIQQTELEYYLGSEAGLATIAENYVGLPYEEIE
B3: XaPobA (Xylophilus ampelinus) (protein)
chain: MRTQVGIVGAGPAGLMLAHLLRREGIDAVVIERAAREHVRTRLRAGVLEQGTVEMLREAGVGGRIDAVGMEMHAIDFRFGGRSHRLDFHEASGGRRAWVYPQHEVVTDLMSACDAGDVPILYEAPVERIEGLEDDRARIVFGQDGAAGEITCDFVAGCDGFRGVSRGSMPAGIARGYDRIYPFGWLGILADAPPASPDVTWGCSDRGFAMMSMRSPTVTRLYLQCEPDEDPDAWSDDRIWSELHRRLDVEGMPSLREGPIRDKGVTAMRSFLSEPMQHGRLFLAGDAAHIVPPTGAKGLNSAMADIKVLAAALVDHYRHGRSDRLATYSERCLRRMWLVQRFSAALCTMVHQFPGQNEFVRRLQRADLDYMTGTHAGRLQFAENFTGLPIE

Key:
purified protein [1] = substrate: O=C(O)c1ccc(O)c(O)c1; assay: purified protein; conditions: apparent, 0.25 mM NADPH, 20 mM Tris-HCl pH 7.9, 25 °C
purified protein [2] = substrate: O=C(O)c1ccc(O)cc1; assay: purified protein; conditions: apparent, 0.25 mM NADPH, 20 mM Tris-HCl pH 7.9, 25 °C

Protein | Km (purified protein [1]) | kcat (purified protein [1]) [s⁻¹] | kcat/Km (purified protein [1]) [M⁻¹ s⁻¹] | Km (purified protein [2])
B1 | 3.2 ± 0.7 × 10^−1 mM | 1.1 ± 0.1 | 3700 ± 600 | 3.7 ± 1.8 × 10^−1 mM
B2 | 1.3 ± 0.2 × 10^−1 mM |  |  | 
B3 | 3.7 ± 0.9 × 10^−1 mM |  |  | 4.3 ± 0.3 × 10^−1 mM
